Laboratory results taken from patent US20210032291A1, “Compstatin Analogs With Improved Pharmacokinetic Properties” (The Trustees of the University of Pennsylvania, priority 2011, published 2021).
Bridge positions count the residues as written; N and C are the ends. Square brackets hold non-standard residues; d marks the D form. Ends that are not written are not given here. Trp(1-Me) = Cn1cc(C[C@H](N)C(=O)O)c2ccccc21; NMeI = CC[C@H](C)[C@H](NC)C(=O)O; Orn = NCCC[C@H](N)C(=O)O; Sar = CNCC(=O)O

B1: Cp40 (6Asn) (peptide)
peptide: [dY]ICV[Trp(1-Me)]QNW[Sar]AHRC[NMeI]-NH2
modifications: disulfide 3-13; N-terminus assumed
SMILES: CC[C@H](C)[C@H](NC(=O)[C@H](N)Cc1ccc(O)cc1)C(=O)N[C@H]1CSSC[C@@H](C(=O)N(C)[C@H](C(N)=O)[C@@H](C)CC)NC(=O)[C@H](CCCNC(=N)N)NC(=O)[C@H](Cc2c[nH]cn2)NC(=O)[C@H](C)NC(=O)CN(C)C(=O)[C@H](Cc2c[nH]c3ccccc23)NC(=O)[C@H](CC(N)=O)NC(=O)[C@H](CCC(N)=O)NC(=O)[C@H](Cc2cn(C)c3ccccc23)NC(=O)[C@H](C(C)C)NC1=O
B2: Peptide 7: Trp-Ile-[Cys-Val-Trp(Me)-Gln-Asp-Trp-Sar-Ala-His-Arg-Cys]-mIle-NH2 (peptide)
peptide: WICV[Trp(1-Me)]QDW[Sar]AHRC[NMeI]-NH2
modifications: disulfide 3-13; N-terminus assumed
SMILES: CC[C@H](C)[C@H](NC(=O)[C@@H](N)Cc1c[nH]c2ccccc12)C(=O)N[C@H]1CSSC[C@@H](C(=O)N(C)[C@H](C(N)=O)[C@@H](C)CC)NC(=O)[C@H](CCCNC(=N)N)NC(=O)[C@H](Cc2c[nH]cn2)NC(=O)[C@H](C)NC(=O)CN(C)C(=O)[C@H](Cc2c[nH]c3ccccc23)NC(=O)[C@H](CC(=O)O)NC(=O)[C@H](CCC(N)=O)NC(=O)[C@H](Cc2cn(C)c3ccccc23)NC(=O)[C@H](C(C)C)NC1=O
B3: Peptide 5: Phe-Ile-[Cys-Val-Trp(Me)-Gln-Asp-Trp-Sar-Ala-His-Arg-Cys]-mIle-NH2 (peptide)
peptide: FICV[Trp(1-Me)]QDW[Sar]AHRC[NMeI]-NH2
modifications: disulfide 3-13; N-terminus assumed
SMILES: CC[C@H](C)[C@H](NC(=O)[C@@H](N)Cc1ccccc1)C(=O)N[C@H]1CSSC[C@@H](C(=O)N(C)[C@H](C(N)=O)[C@@H](C)CC)NC(=O)[C@H](CCCNC(=N)N)NC(=O)[C@H](Cc2c[nH]cn2)NC(=O)[C@H](C)NC(=O)CN(C)C(=O)[C@H](Cc2c[nH]c3ccccc23)NC(=O)[C@H](CC(=O)O)NC(=O)[C@H](CCC(N)=O)NC(=O)[C@H](Cc2cn(C)c3ccccc23)NC(=O)[C@H](C(C)C)NC1=O
B4: Peptide 12: mIle-Ile-[Cys-Val-Trp(Me)-Gln-Asp-Trp-Sar-Ala-His-Arg-Cys]-mIle-NH2 (peptide)
peptide: IICVWQDWGAHRCI
modifications: mIle (N-methyl-Ile; printed 'mlle') at Xaa0; Trp(Me) at position 4; Sar at position 8; mIle at position 13; C-terminal -NH2; cyclic via Cys2-Cys12 disulfide (compstatin position numbering)
B5: Peptide 20: Tyr-Gly-[Cys-Val-Trp(Me)-Gln-Asp-Trp-Sar-Ala-His-Arg-Cys]-mIle-NH2 (peptide)
peptide: YGCV[Trp(1-Me)]QDW[Sar]AHRC[NMeI]-NH2
modifications: disulfide 3-13; N-terminus assumed
SMILES: CC[C@H](C)[C@@H](C(N)=O)N(C)C(=O)[C@@H]1CSSC[C@H](NC(=O)CNC(=O)[C@@H](N)Cc2ccc(O)cc2)C(=O)N[C@@H](C(C)C)C(=O)N[C@@H](Cc2cn(C)c3ccccc23)C(=O)N[C@@H](CCC(N)=O)C(=O)N[C@@H](CC(=O)O)C(=O)N[C@@H](Cc2c[nH]c3ccccc23)C(=O)N(C)CC(=O)N[C@@H](C)C(=O)N[C@@H](Cc2c[nH]cn2)C(=O)N[C@@H](CCCNC(=N)N)C(=O)N1
B6: Compstatin 30 (Cp30): Sar-Ile-[Cys-Val-Trp(Me)-Gln-Asp-Trp-Sar-Ala-His-Arg-Cys]-mIle-NH2 (peptide)
peptide: GICVWQDWGAHRCI
modifications: Sar (N-methyl-Gly) at Xaa0 (N-terminus); Trp(Me) at position 4; Sar at position 8; mIle at position 13; C-terminal -NH2; cyclic via Cys2-Cys12 disulfide (compstatin position numbering)
B7: Peptide 8: Thr-Ile-[Cys-Val-Trp(Me)-Gln-Asp-Trp-Sar-Ala-His-Arg-Cys]-mIle-NH2 (peptide)
peptide: TICV[Trp(1-Me)]QDW[Sar]AHRC[NMeI]-NH2
modifications: disulfide 3-13; N-terminus assumed
SMILES: CC[C@H](C)[C@H](NC(=O)[C@@H](N)[C@@H](C)O)C(=O)N[C@H]1CSSC[C@@H](C(=O)N(C)[C@H](C(N)=O)[C@@H](C)CC)NC(=O)[C@H](CCCNC(=N)N)NC(=O)[C@H](Cc2c[nH]cn2)NC(=O)[C@H](C)NC(=O)CN(C)C(=O)[C@H](Cc2c[nH]c3ccccc23)NC(=O)[C@H](CC(=O)O)NC(=O)[C@H](CCC(N)=O)NC(=O)[C@H](Cc2cn(C)c3ccccc23)NC(=O)[C@H](C(C)C)NC1=O
B8: Peptide 11: mVal-Ile-[Cys-Val-Trp(Me)-Gln-Asp-Trp-Sar-Ala-His-Arg-Cys]-mIle-NH2 (peptide)
peptide: VICVWQDWGAHRCI
modifications: mVal (N-methyl-Val) at Xaa0; Trp(Me) at position 4; Sar at position 8; mIle at position 13; C-terminal -NH2; cyclic via Cys2-Cys12 disulfide (compstatin position numbering)
B9: Peptide 1: Me-Ile-[Cys-Val-Trp(Me)-Gln-Asp-Trp-Sar-Ala-His-Arg-Cys]-mIle-NH2 (peptide)
peptide: Me-ICVWQDW[Sar]AHRC[NMeI]-NH2
modifications: disulfide 2-12; not fully specified (residue 4); printed as Me-Ile-[Cys-Val-Trp(Me)-Gln-Asp-Trp-Sar-Ala-His-Arg-Cys]-mIle-NH2
B10: Peptide 2: Gly-Ile-[Cys-Val-Trp(Me)-Gln-Asp-Trp-Sar-Ala-His-Arg-Cys]-mIle-NH2 (peptide)
peptide: GICV[Trp(1-Me)]QDW[Sar]AHRC[NMeI]-NH2
modifications: disulfide 3-13; N-terminus assumed
SMILES: CC[C@H](C)[C@H](NC(=O)CN)C(=O)N[C@H]1CSSC[C@@H](C(=O)N(C)[C@H](C(N)=O)[C@@H](C)CC)NC(=O)[C@H](CCCNC(=N)N)NC(=O)[C@H](Cc2c[nH]cn2)NC(=O)[C@H](C)NC(=O)CN(C)C(=O)[C@H](Cc2c[nH]c3ccccc23)NC(=O)[C@H](CC(=O)O)NC(=O)[C@H](CCC(N)=O)NC(=O)[C@H](Cc2cn(C)c3ccccc23)NC(=O)[C@H](C(C)C)NC1=O
B11: Peptide 19: Ac-Trp-[Cys-Val-Trp(Me)-Gln-Asp-Trp-Sar-Ala-His-Arg-Cys]-mIle-NH2 (peptide)
peptide: Ac-WCV[Trp(1-Me)]QDW[Sar]AHRC[NMeI]-NH2
modifications: disulfide 2-12
SMILES: CC[C@H](C)[C@@H](C(N)=O)N(C)C(=O)[C@@H]1CSSC[C@H](NC(=O)[C@H](Cc2c[nH]c3ccccc23)NC(C)=O)C(=O)N[C@@H](C(C)C)C(=O)N[C@@H](Cc2cn(C)c3ccccc23)C(=O)N[C@@H](CCC(N)=O)C(=O)N[C@@H](CC(=O)O)C(=O)N[C@@H](Cc2c[nH]c3ccccc23)C(=O)N(C)CC(=O)N[C@@H](C)C(=O)N[C@@H](Cc2c[nH]cn2)C(=O)N[C@@H](CCCNC(=N)N)C(=O)N1
B12: Peptide 10: mPhe-Ile-[Cys-Val-Trp(Me)-Gln-Asp-Trp-Sar-Ala-His-Arg-Cys]-mIle-NH2 (peptide)
peptide: FICVWQDWGAHRCI
modifications: mPhe (N-methyl-Phe) at Xaa0; Trp(Me) at position 4; Sar at position 8; mIle at position 13; C-terminal -NH2; cyclic via Cys2-Cys12 disulfide (compstatin position numbering)
B13: Peptide 13: mAla-Ile-[Cys-Val-Trp(Me)-Gln-Asp-Trp-Sar-Ala-His-Arg-Cys]-mIle-NH2 (peptide)
peptide: AICVWQDWGAHRCI
modifications: mAla (N-methyl-Ala) at Xaa0; Trp(Me) at position 4; Sar at position 8; mIle at position 13; C-terminal -NH2; cyclic via Cys2-Cys12 disulfide (compstatin position numbering)
B14: Peptide 6: Arg-Ile-[Cys-Val-Trp(Me)-Gln-Asp-Trp-Sar-Ala-His-Arg-Cys]-mIle-NH2 (peptide)
peptide: RICV[Trp(1-Me)]QDW[Sar]AHRC[NMeI]-NH2
modifications: disulfide 3-13; N-terminus assumed
SMILES: CC[C@H](C)[C@H](NC(=O)[C@@H](N)CCCNC(=N)N)C(=O)N[C@H]1CSSC[C@@H](C(=O)N(C)[C@H](C(N)=O)[C@@H](C)CC)NC(=O)[C@H](CCCNC(=N)N)NC(=O)[C@H](Cc2c[nH]cn2)NC(=O)[C@H](C)NC(=O)CN(C)C(=O)[C@H](Cc2c[nH]c3ccccc23)NC(=O)[C@H](CC(=O)O)NC(=O)[C@H](CCC(N)=O)NC(=O)[C@H](Cc2cn(C)c3ccccc23)NC(=O)[C@H](C(C)C)NC1=O

What follows are binders tested against C3b (biotinylated, captured site-specifically on a streptavidin chip) (UniProt P01024) (assay: SPR, single-cycle kinetics on immobilised C3b (method of Example 2)).
In the case of [dY]ICV[Trp(1-Me)]QNW[Sar]AH[Orn]C[NMeI]-NH2 (disulfide 3-13) [Cp40 (11Orn 6Asn)], the Kd is reported as 1.5 nM, the koff is reported as 0.0028 s⁻¹ and the kon is reported as 2e+06 M⁻¹ s⁻¹. [dY]ICV[Trp(1-Me)]QDW[Sar]AH[Orn]C[NMeI]-NH2 (disulfide 3-13) [Cp40 (11Orn)] gave a Kd of 0.8 nM, a koff of 0.002 s⁻¹ and a kon of 2.5e+06 M⁻¹ s⁻¹. In the case of B1, the Kd is reported as 3 nM, the koff is reported as 0.0028 s⁻¹ and the kon is reported as 900000 M⁻¹ s⁻¹.

The binders below were run against C3b (biotinylated, captured site-specifically on a streptavidin chip) (UniProt P01024) (assay: SPR (Biacore 3000), single-cycle kinetics, biotinylated C3b on streptavidin chip, peptide as analyte, 1:1 Langmuir fit).
In the case of B2, the Kd is reported as 2.2 nM, the koff is reported as 0.0036 s⁻¹ and the kon is reported as 1.6e+06 M⁻¹ s⁻¹. With B3 the Kd was 1.6 nM, the koff was 0.0033 s⁻¹ and the kon was 2.1e+06 M⁻¹ s⁻¹. In the case of B4, the Kd is reported as 2.4 nM, the koff is reported as 0.0037 s⁻¹ and the kon is reported as 1.6e+06 M⁻¹ s⁻¹. Work on B5 yielded a Kd of 3.5 nM, a koff of 0.0073 s⁻¹ and a kon of 2.1e+06 M⁻¹ s⁻¹. For B6, the Kd was 1.6 nM, the koff was 0.0029 s⁻¹ and the kon was 1.9e+06 M⁻¹ s⁻¹. With B7 the Kd was 2.6 nM, the koff was 0.0031 s⁻¹ and the kon was 1.2e+06 M⁻¹ s⁻¹. B8 gave a Kd of 1.9 nM, a koff of 0.0035 s⁻¹ and a kon of 1.8e+06 M⁻¹ s⁻¹. In the case of B9, the Kd is reported as 18.6 nM, the koff is reported as 0.0248 s⁻¹ and the kon is reported as 1.3e+06 M⁻¹ s⁻¹. In the case of B10, the Kd is reported as 2.5 nM, the koff is reported as 0.0029 s⁻¹ and the kon is reported as 1.2e+06 M⁻¹ s⁻¹. B11 showed a Kd of 0.5 nM, a koff of 0.0017 s⁻¹ and a kon of 3.8e+06 M⁻¹ s⁻¹. B12 was tested, and the Kd was 1.8 nM, the koff was 0.0029 s⁻¹ and the kon was 1.6e+06 M⁻¹ s⁻¹. B13 showed a Kd of 2.5 nM, a koff of 0.0034 s⁻¹ and a kon of 1.4e+06 M⁻¹ s⁻¹. B14 was tested, and the Kd was 1.7 nM, the koff was 0.0029 s⁻¹ and the kon was 1.7e+06 M⁻¹ s⁻¹.

What follows are binders tested against C3b (biotinylated, captured site-specifically on a streptavidin chip) (UniProt P01024) (assay: SPR on immobilised C3b).
In the case of B5, the fold weaker binding affinity than peptide 4 is reported as 3 fold.
